Test results: PMC2120123

Legend:
Experiment in all cases: radioligand binding
[1] = biological target: CD44(GP85)Δ320, purified from transfected COS cells (mouse)
[2] = biological target: CD45Δ826/CD44(Reg.I) fusion protein (mouse) (UniProt P06800)
[3] = biological target: CD44(GP85)Δ355, purified from transfected COS cells (mouse)

Substance “Erythrocyte ankyrin (from UniProt P16157 1-1881) (natural protein)” has a Kd [1] of 2.6 nM, an Ankyrin binding (cpm) [2] of 1160 cpm and a Kd [3] of 1 nM.
